Data taken from US20040001801A1 (priority 2002, published 2004).
Square brackets hold non-standard residues; d marks the D form. Peptide text beside a SMILES is read from it. * marks the point of attachment. Doxorubicin(3'-N) = COc1cccc2c1C(=O)c1c(O)c3c(c(O)c1C2=O)C[C@@](O)(C(=O)CO)C[C@@H]3O[C@H]1C[C@H](N*)[C@H](O)[C@H](C)O1; Nle = CCCC[C@H](N)C(=O)O

Details: mouse, in vivo

## CCCC[C@H](NC(=O)[C@H](CO)NC(=O)[C@H](CCCNC(=N)N)NC(=O)CNC(=O)[C@H](CO)NC(=O)CNC(C)=O)C(=O)N[C@H]1C[C@H](O[C@H]2C[C@](O)(C(=O)CO)Cc3c(O)c4c(c(O)c32)C(=O)c2c(OC)cccc2C4=O)O[C@@H](C)[C@H]1O [Ac-Gly-Ser-Gly-Arg-Ser-nLeu-Dox] (Ac-GSGRS[Nle]-{Doxorubicin(3'-N)})
  levels of dox and nor-leu dox in the plasma compared with the tumor: lower levels
  parent conjugate in the tumor: does not get into the tumor
  toxins (norleu dox and dox) concentrations in the tumor: μM concentrations
